In patent US20150086562A1 (BIOATLA, published 2015):

How the values were obtained:
[1] = molecular target: T1, CD22 protein expressed on the surface of Daudi cells (human, UniProt P20273 20-847); test: confocal immunofluorescence, FITC-labelled antibody on Daudi cells
T1 construct: whole, on cells; also called human CD22; cell surface CD22
T1 sequence (looked up): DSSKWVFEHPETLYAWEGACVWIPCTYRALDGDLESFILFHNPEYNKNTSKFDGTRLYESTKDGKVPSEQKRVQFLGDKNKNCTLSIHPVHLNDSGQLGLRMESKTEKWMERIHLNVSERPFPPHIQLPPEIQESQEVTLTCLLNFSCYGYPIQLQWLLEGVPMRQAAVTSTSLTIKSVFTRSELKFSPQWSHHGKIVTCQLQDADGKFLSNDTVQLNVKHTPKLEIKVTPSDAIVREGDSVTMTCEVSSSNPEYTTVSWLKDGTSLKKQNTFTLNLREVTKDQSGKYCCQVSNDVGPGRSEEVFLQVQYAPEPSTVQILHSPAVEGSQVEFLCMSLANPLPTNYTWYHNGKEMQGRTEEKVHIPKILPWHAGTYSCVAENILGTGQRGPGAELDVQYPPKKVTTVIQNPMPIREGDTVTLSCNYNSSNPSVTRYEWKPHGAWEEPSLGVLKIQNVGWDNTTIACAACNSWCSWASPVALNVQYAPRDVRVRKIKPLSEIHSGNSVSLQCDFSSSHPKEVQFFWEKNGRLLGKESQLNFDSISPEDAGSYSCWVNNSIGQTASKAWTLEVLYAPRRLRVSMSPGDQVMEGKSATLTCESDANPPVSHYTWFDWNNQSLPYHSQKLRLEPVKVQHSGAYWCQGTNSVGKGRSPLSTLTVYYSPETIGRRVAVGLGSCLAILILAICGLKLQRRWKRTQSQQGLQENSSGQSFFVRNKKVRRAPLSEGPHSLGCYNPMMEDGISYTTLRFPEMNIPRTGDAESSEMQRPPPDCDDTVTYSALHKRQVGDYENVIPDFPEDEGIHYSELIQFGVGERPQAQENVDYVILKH
Experimental: Selected antiCD22 selected anti-CD22 Mab clones VM1000, VM1001, VM1002, VM1003, VM1004, VM1005, VM1006, VM1007, VM1008, VM1009, VM1010, VM1011, VM1012, VM1013, VM1014, and VM1015 of the invention were directly conjugated to F1TC using the Zenon labeling complex (Molecular Probes) using the manufacturer's recommended procedures. Approximately 1×10e7 Daudi cells were resuspended in PBS containing 5 ug/ml labeled anti-CD22 antibody and incubated for 45 minutes on ice. Cells then washed twice in PBS-FBS solution at 0 C. Cells were then incubated in RPMI 1640 media containing 10% FBS for varying periods at 37 C, harvested and washed in PBS at 0 C. The cells were then briefly fixed in 4% paraformaldehyde solution for 5 min at room temperature, then washed in PBS containing 0.05% Triton X-100. Cell pellets were collected by centrifugation and resupended in a minimal volume of FBS neat, and then applied to glass microscope slides. Prior to analysis, slides were treated with mounting fluid containing the nuclear stain DAPI, then coverslips were applied. Confocal images were recorded using an ACAS Ultima confocal microscope (Meridian Instruments, Inc., Okemos, Mich.) and represent 1-μm sections through the center of a focal plane using a 100× oil immersion objective.
The Anti-CD22 monoclonal antibodies selected clones VM1000, VM1001, VM1002, VM1003, VM1004, VM1005, VM1006, VM1007, VM1008, VM1009, VM1010, VM1011, VM1012, VM1013, VM1014, and VM1015 of the invention were analysed for their ability to be rapidly internalized into the intracellular compartment as judged by immunoflourescent signal on the cell surface versus the intracellular endo cytotic compartment. The antibodies of the invention were compared to BA006H, and humanized version of the murine monoclonal antibody LL2. In this example, FIG. 21A, the anti-CD22 antibodies of the invention bind to CD22 protein expressed on the surface of Daudi cells by approximately 20-fold compared to BA006H as judged by relative mean fluorescence (RMF), and are virtually completely internalized within the cell with 90 minutes, localizing predominantly to within the perinuclear golgi apparatus and associated lysozomes. Shown in FIG. 21B is a chart of the RMF surface binding values obtained in this manner for individual anti-CD22 antibodies of the invention.

[2] = molecular target: T1, CD22 protein expressed on the surface …; test: cell-based or functional assay
[3] = molecular target: T2, recombinant CD22 extracellular domain; test: ELISA on plates coated with recombinant CD22 extracellular domain (coating 2, 0.2, 0.02 or 0.002 ug/ml per paragraph 227; the sheet does not say which), anti-human IgG-HRP, read at 450 nm
T2 construct: Kept apart from m18, which is cell-surface CD22; also called CD22 (analyte in the BIAcore runs); CD22 ECD
Experimental: Nunc-Immuno MaxiSorp 96 well plates were coated with 100 μl of 2 μg/ml, 0.2 μg/ml, 0.02 μg/ml or 0.002 μg/ml recombinant CD22 extracellular domain (PeproTech, Inc. catalog number 100-01 in coating solution (sodium bicarbonate in PBS). The plates were covered with plate sealer and incubated at 4° C. overnight. Plates were emptied and the residual liquid tapped out on paper towels. 200 μl washing solution (0.05% Tween-20 in PBS) was added and shaken at 200 RPM for 5 min at room temperature. The plates were emptied and residual liquid tapped out on paper towels. 200 μl blocking solution (2% Carnation milk in PBS) was added and shaken at 200 RPM for one hour at room temperature. Plates were emptied and residual liquid tapped out on paper towels. 100 μl of diluted samples containing VM1000, VM1001, VM1002, VM1003, VM1004, VM1005, VM1006, VM1007, VM1008, VM1009, VM1010, VM1011, VM1012, VM1013, VM1014, and VM1015 antibodies for ELISA were used. The samples were shaken at 200 RPM for one hour at room temperature; plates emptied and residual liquid tapped out on paper towels. 200 μl washing solution (0.05% Tween-20 in PBS) was added, shaken at 200 RPM for 5 min at room temperature; plates emptied and residual liquid tapped out on paper towels. This process was repeated three times. 100 μl of 1:2500 dilution of anti-human IgG conjugated with HRP diluted in block solution (2% Carnation milk in PBS) was added for all samples. 100 μl of 1:2500 dilution of anti-rabbit IgG conjugated with HRP diluted in block solution (2% Carnation milk in PBS) was added for control antibody. The contents were shaken at 200 RPM for one hour at room temperature, plates emptied and residue liquid tapped out on paper towels. 200 μl washing solution (0.05% Tween-20 in PBS) was added, shaken at 200 RPM for 5 min at room temperature; plates emptied and residual liquid tapped out on paper towels. This process was repeated three times. 100 μl TMB substrate solution was added, and incubated at room temperature. The reaction was stopped with 1 N HCl, and the plate read at 450 nm to determine relative binding affinity (FIG. 17).

B1: VM1008 (antibody, V domains shown)
VH: QVQLVQSGAEVKKPGASVKVSCKASGYVFTSYWLHWVRQARGQRLEWIGYINPRNDYTEYNRIFKGRVTITADKSTSTAYMELSSLRSEDTAVYYCARRGITTFYWGQG
VL: DIQMTQSPSSLSASVGDRVTITCKSSQSVLYSAVEKNYLAWYQQKPGQAPRLLIYWASTRERGIPDRFSGSGSGTDFTLTISRLEPEDFAVYYCKQYLSSWTFGQG
notes: Humanized antibody with human constant region; also called Anti-CD22 Ab VM1008; anti-CD22 Mab clone VM1008
For B1, the “fold surface binding by relative mean fluorescence (RMF) compared to BA006H” value [1] was about 20 fold, the “Daudi Internalization by FACS, % Shift” value [2] was 69.4% and the “ELISA OD 450” value [3] was 0.67.

B2: VM1013 (antibody, V domains shown)
VH: QVQLQESGPGLVKPSQTLSLTCTVSGYVFTSYWLHWIRQPPGKGLEWIGYINPRNDYTEYNRIFKGRFTISRDNAKNSLYLQMNSLRAEDTAVYYCARRGITTFYWGQG
VL: AIQLTQSPSSLSASVGDRVTITCKSSQSVLYSAVEKNYLAWYQQKPGQAPRLLIYWASTRERGVPSRFSGSGSGTDFTLTISSLQPEDFATYYCKQYLSSWTFGQG
notes: Humanized antibody with human constant region; also called anti-CD22 Mab clone VM1013
In the case of B2, the “fold surface binding by relative mean fluorescence (RMF) compared to BA006H” value [1] is reported as about 20 fold and the “Daudi Internalization by FACS, % Shift” value [2] is reported as 88.8%.

B3: VM1009 (antibody, V domains shown)
VH: QVQLVQSGAEVKKPGASVKVSCKASGYVFTSYWLHWIRQSPSRGLEWLGYINPRNDYTEYNRIFKGRFVFSLDTSVSTAYLQICSLKAEDTAVYYCARRGITTFYWGQG
VL: EIVLTQSPATLSLSPGERATLSCKSSQSVLYSAVEKNYLAWYQQKPGKAPKLLIYWASTRERGVPSRFSGSGSGTDFTFTISSLEAEDAATYYCKQYLSSWTFGQG
notes: Humanized antibody with human constant region; also called anti-CD22 Mab clone VM1009
With B3 the “fold surface binding by relative mean fluorescence (RMF) compared to BA006H” value [1] was about 20 fold, the “Daudi Internalization by FACS, % Shift” value [2] was 69.4% and the “ELISA OD 450” value [3] was 0.597.

B4: VM1012 (antibody, V domains shown)
VH: QVQLVQSGAEVKKPGASVKVSCKASGYVFTSYWLHWVRQAPGQGLEWMGYINPRNDYTEYNRIFKGRFTISRDNAKNSLYLQMNSLRAEDTAVYYCARRGITTFYWGQG
VL: EIVLTQSPATLSVSPGERATLSCKSSQSVLYSAVEKNYLAWYQQKPGQAPRLLIYWASTRERGVPSRFSGSGSGTDFTFTISSLQPEDIATYYCKQYLSSWTFGQG
notes: Humanized antibody with human constant region; also called anti-CD22 Mab clone VM1012
With B4 the “fold surface binding by relative mean fluorescence (RMF) compared to BA006H” value [1] was about 20 fold and the “Daudi Internalization by FACS, % Shift” value [2] was 87.5%.

B5: VM1010 (antibody, V domains shown)
VH: EVQLVQSGAEVKKPGESLRISCKVSGYVFTSYWLHWIRQSPSRGLEWLGYINPRNDYTEYNRIFKGRFTISRDNAKNSLYLQMNSLRAEDTAVYYCARRGITTFYWGQG
VL: EIVLTQSPATLSLSPGERATLSCKSSQSVLYSAVEKNYLAWYQQKPGKAPKLLIYWASTRERGVPSRFSGSGSGTDFTFTISSLQPEDIATYYCKQYLSSWTFGQG
notes: Humanized antibody with human constant region; also called anti-CD22 Mab clone VM1010
With B5 the “fold surface binding by relative mean fluorescence (RMF) compared to BA006H” value [1] was about 20 fold, the “Daudi Internalization by FACS, % Shift” value [2] was 65.7% and the “ELISA OD 450” value [3] was 0.7.

B6: VM1005 (antibody, V domains shown)
VH: EVQLVQSGAEVKKPGATVKISCKVSGYVFTSYWLHWIRQSPSRGLEWLGYINPRNDYTEYNRIFKGRFVFSLDTSVSTAYLQICSLKAEDTAVYYCARRGITTFYWGQG
VL: AIQLTQSPSSLSASVGDRVTITCKSSQSVLYSAVEKNYLAWYQQKPGQAPRLLIYWASTRERGVPSRFSGSGSGTDFTLTISSLQPEDFATYYCKQYLSSWTFGQG
notes: Humanized antibody with human constant region; also called anti-CD22 Mab clone VM1005
In the case of B6, the “fold surface binding by relative mean fluorescence (RMF) compared to BA006H” value [1] is reported as about 20 fold, the “Daudi Internalization by FACS, % Shift” value [2] is reported as 86.4% and the “ELISA OD 450” value [3] is reported as 0.372.
